Experimental data as given in the Human Domainome abundance scans (Beltran et al. 2025).
± gives the uncertainty stated by the source.

B1: Cytoplasmic polyadenylation element-binding protein 2, residues 513 to 575; numbered along this chain, Q7Z5Q1 (parent)
chain: KRVEVKPYVLDDQMCDECQGARCGGKFAPFFCANVTCLQYYCEFCWANIHSRAGREFHKPLVK

Variants of: B1
Assay: abundance fitness (aPCA) (normalised: wild type 0, dead -1); higher = more abundant; growth selection in yeast, the domain comes from the species named
Conditions: Homo sapiens

Variant | abundance fitness
KRVEVKPYVLDDQMCDECQGARCGGKFAPFFCANVTCLQYYMEFCWANIHSRAGREFHKPLVK [C42M] | -1.22 ± 0.24
KRVEVKPYVLDDQMCDEEQGARCGGKFAPFFCANVTCLQYYCEFCWANIHSRAGREFHKPLVK [C18E] | -0.658 ± 0.12
KRVEVKPYVLDDQMCDELQGARCGGKFAPFFCANVTCLQYYCEFCWANIHSRAGREFHKPLVK [C18L] | -0.966 ± 0.069
KRVEVKPYVLDDQMCDECQGARCGGYFAPFFCANVTCLQYYCEFCWANIHSRAGREFHKPLVK [K26Y] | -0.404 ± 0.084
KRVEVKPYVLDDQMCDECQGARCGGHFAPFFCANVTCLQYYCEFCWANIHSRAGREFHKPLVK [K26H] | -0.126 ± 0.075
KRVEVKWYVLDDQMCDECQGARCGGKFAPFFCANVTCLQYYCEFCWANIHSRAGREFHKPLVK [P7W] | -0.622 ± 0.058
KRVEVKKYVLDDQMCDECQGARCGGKFAPFFCANVTCLQYYCEFCWANIHSRAGREFHKPLVK [P7K] | 0.046 ± 0.072
KRVEVKRYVLDDQMCDECQGARCGGKFAPFFCANVTCLQYYCEFCWANIHSRAGREFHKPLVK [P7R] | -0.125 ± 0.033
KRVEVKPYVLDDQMCDECQIARCGGKFAPFFCANVTCLQYYCEFCWANIHSRAGREFHKPLVK [G20I] | -0.841 ± 0.15
KRVEVKPYVLDDQMCDECQSARCGGKFAPFFCANVTCLQYYCEFCWANIHSRAGREFHKPLVK [G20S] | -0.363 ± 0.053
KRVEVKPYVLDDQMCDECQDARCGGKFAPFFCANVTCLQYYCEFCWANIHSRAGREFHKPLVK [G20D] | -0.093 ± 0.08
KRVEVKPYVLDDQMCDECQGAFCGGKFAPFFCANVTCLQYYCEFCWANIHSRAGREFHKPLVK [R22F] | -0.363 ± 0.088
KRVEVKPYVLDDQMCDECQGARCGGKFANFFCANVTCLQYYCEFCWANIHSRAGREFHKPLVK [P29N] | -0.01 ± 0.062
KRVEVKPYVLDDQMCDECQGARCGGKFAAFFCANVTCLQYYCEFCWANIHSRAGREFHKPLVK [P29A] | 0.009 ± 0.056
KRVEVKPYVLDDQMCDECQGARCGGKFAPFFCANVTCLQYYCEFCWANIHSRAGREFHKPLVM [K63M] | -0.111 ± 0.14
KRVEVKPYVLDDQMCDECQGARCGGKFAPFFCANVTCLQYYCEFCWANIHSRAGREFHHPLVK [K59H] | -0.226 ± 0.072
KRVEVKPYVLDDQMCDECQGARCGGKFAPNFCANVTCLQYYCEFCWANIHSRAGREFHKPLVK [F30N] | -0.081 ± 0.13
KRVEVKPYVLDDQMCDECQGARCGGKFAPKFCANVTCLQYYCEFCWANIHSRAGREFHKPLVK [F30K] | 0.037 ± 0.056
KRVEVKPYVLDDQMCDECQGARCGGKFAPEFCANVTCLQYYCEFCWANIHSRAGREFHKPLVK [F30E] | -0.415 ± 0.11
KRVEVKPYVLDDQMCDECQGARCGGKFAPFFCANVTCLQYYCEFCWANYHSRAGREFHKPLVK [I49Y] | 0.026 ± 0.051
KRVEVKPYVLDDQMCDECQGARCGGKFAPFFCANVTCLQYYCEFCWANLHSRAGREFHKPLVK [I49L] | -0.033 ± 0.04
KRVEVKPYVLDDQMCDECQGARCGGKFAPFFCANVTCLQYYCEFCWANVHSRAGREFHKPLVK [I49V] | -0.01 ± 0.061

Variant | abundance fitness
KRVEVKPYVLDDQMCDECQGARCGGKFAPFFCANVTCLQYYCEFCWANMHSRAGREFHKPLVK [I49M] | -0.184 ± 0.1
KRVEVKPYVLDDQMCDECQGARCGGKFAPFFCANVTCLQYYCEFCWANFHSRAGREFHKPLVK [I49F] | -0.044 ± 0.055
KRVEVKPYVLDDQMCDECQGARCGGKFAPFFCANVTCLQWYCEFCWANIHSRAGREFHKPLVK [Y40W] | -0.059 ± 0.056
KRVEVKPYVLDDQMCDECQGARCGGKFAPFFCANVTCLQPYCEFCWANIHSRAGREFHKPLVK [Y40P] | -0.654 ± 0.079
KRVEVKPYVLDDQMCDECQGARCGGKFAPFFCANHTCLQYYCEFCWANIHSRAGREFHKPLVK [V35H] | -0.037 ± 0.082
KRVEVKPYSLDDQMCDECQGARCGGKFAPFFCANVTCLQYYCEFCWANIHSRAGREFHKPLVK [V9S] | 0.058 ± 0.039
KRVEVKPYALDDQMCDECQGARCGGKFAPFFCANVTCLQYYCEFCWANIHSRAGREFHKPLVK [V9A] | -0.02 ± 0.043
KRVEVKPYVLDDQMCDECQGARCGGKFAPFFCANVTCLQYMCEFCWANIHSRAGREFHKPLVK [Y41M] | -0.053 ± 0.056
KRVEVKPYVLDDQMCDECCGARCGGKFAPFFCANVTCLQYYCEFCWANIHSRAGREFHKPLVK [Q19C] | -0.22 ± 0.12
KRVEVKPYVLDDQMCRECQGARCGGKFAPFFCANVTCLQYYCEFCWANIHSRAGREFHKPLVK [D16R] | 0.015 ± 0.037
KRVEVKPYVLDDQMCDECQGARCGGKFAPFFCANVTCLQYYCEFCWANIHSRAGREFHKRLVK [P60R] | -0.052 ± 0.041
KRVEVKPYVLDDQMCDECQGARCGGKFAPFFCANVTCLQYYCEFCWANIHSRAGREFHKNLVK [P60N] | -0.057 ± 0.12
KRVEVKPYVLDDQMCDECQGARCGGKFAPFFCANVTCLQYYCEFCWANIHSRAGREFHKFLVK [P60F] | -0.937 ± 0.21
KRVEVKPYVLNDQMCDECQGARCGGKFAPFFCANVTCLQYYCEFCWANIHSRAGREFHKPLVK [D11N] | -0.028 ± 0.05
KRVEVKPYVLLDQMCDECQGARCGGKFAPFFCANVTCLQYYCEFCWANIHSRAGREFHKPLVK [D11L] | -0.27 ± 0.041
KRVEVKPYVLDDQMCDECQGARCGGKFAPFFCANVTCLQYYCEFCWANIHSRAGREFHKPRVK [L61R] | -0.014 ± 0.042
KRVEVKPYVLDDQMCDECQGARCGGKFAPFFCANVTCLQYYCELCWANIHSRAGREFHKPLVK [F44L] | 0.007 ± 0.038
KRVEVKPYVLDDQMCDECQGARCGGKFAPFFCANVTCLQYYCERCWANIHSRAGREFHKPLVK [F44R] | -0.038 ± 0.032
KRVEVKPYVLDDQMCDECQGARCGGKFAPFFCANVTCLQYYCEVCWANIHSRAGREFHKPLVK [F44V] | 0.044 ± 0.046
KRVEVKPYVLDDQMCDECQGARCGGKFAPFFCANVTCLQYYCEFCWANIHSLAGREFHKPLVK [R52L] | -0.017 ± 0.039
KRVEVKPYVLDDQMCDECQGARCGGKFAPFFCANVTCLQYYCEFCWANIHSYAGREFHKPLVK [R52Y] | -0.088 ± 0.097
